Assay results as given in patent publication US20210047402A1 (TENEOBIO, published 2021).
Where a chain is given by its changes, count along the chain named.

B1: anti-CD22 heavy chain-only antibody Clone ID 335206 (antibody, V domains shown)
VH: QLQLQESGPGLVKPSETLSLTCTVSGDSISSGDYYWGWIRQPPGKGLEWIGHIYYSGATYYNPSLKNRVTISVDTSKNQFSLKLSSVTAADTAVYYCTREDSSNWRSRGQGTLVTVSS
notes: Heavy chain-only antibody (UniAb), no light chain
B2: anti-CD22 heavy chain-only antibody Clone ID 335233 (antibody, V domains shown)
VH: B1 VH with H52S, A58S, N67S
notes: as for B1
B3: anti-CD22 heavy chain-only antibody Clone ID 335208 (antibody, V domains shown)
VH: B1 VH with D27G, G32S, D33S, H52S, K77R, K83N
notes: as for B1
B4: anti-CD22 heavy chain-only antibody Clone ID 335220 (antibody, V domains shown)
VH: B1 VH with D27G, G32S, D33S, H52S, A58S
notes: as for B1
B5: anti-CD22 heavy chain-only antibody Clone ID 335274 (antibody, V domains shown)
VH: B1 VH with D27G, G32S, D33S, H52S, A58S, N67S, K77R, K83N, N104S
notes: as for B1
B6: anti-CD22 heavy chain-only antibody Clone ID 335236 (antibody, V domains shown)
VH: B1 VH with D27G, G32S, D33S, H52S, A58S, N67S
notes: as for B1
B7: anti-CD22 heavy chain-only antibody Clone ID 335150 (antibody, V domains shown)
VH: B1 VH with P42S, G44E, A58V, T98K, E100D
notes: as for B1
B8: anti-CD22 heavy chain-only antibody Clone ID 335254 (antibody, V domains shown)
VH: B1 VH with A58V, N104S
notes: as for B1
B9: anti-CD22 heavy chain-only antibody Clone ID 335219 (antibody, V domains shown)
VH: B1 VH with D27G, G32S, D33S, H52S, A58V
notes: as for B1
B10: anti-CD22 heavy chain-only antibody Clone ID 335234 (antibody, V domains shown)
VH: B1 VH with H52N
notes: as for B1
B11: anti-CD22 heavy chain-only antibody Clone ID 335242 (antibody, V domains shown)
VH: B1 VH with D27G, G32S, D33S, K77R, K83N
notes: as for B1
B12: anti-CD22 heavy chain-only antibody Clone ID 335207 (antibody, V domains shown)
VH: B1 VH with A58V, N67S, K77R
notes: as for B1
B13: anti-CD22 heavy chain-only antibody Clone ID 335273 (antibody, V domains shown)
VH: B1 VH with D27G, G32S, D33S, H52S, A58S, N67S, N104S
notes: as for B1
B14: anti-CD22 heavy chain-only antibody Clone ID 335261 (antibody, V domains shown)
VH: B1 VH with K66E, N104S
notes: as for B1
B15: anti-CD22 heavy chain-only antibody Clone ID 335271 (antibody, V domains shown)
VH: B1 VH with Q41H, N104S
notes: as for B1
B16: anti-CD22 heavy chain-only antibody Clone ID 335283 (antibody, V domains shown)
VH: B1 VH with D27G, G32S, D33S, H52S, N104S
notes: as for B1
B17: anti-CD22 heavy chain-only antibody Clone ID 335151 (antibody, V domains shown)
VH: B1 VH with K77R, K83N, E100D
notes: as for B1
B18: anti-CD22 heavy chain-only antibody Clone ID 335260 (antibody, V domains shown)
VH: B1 VH with A58V, K77R, K83N, N104S
notes: as for B1
B19: anti-CD22 heavy chain-only antibody Clone ID 335186 (antibody, V domains shown)
VH: B1 VH with D27G, G32S, D33S, H52S, A58S, N67S, E100D
notes: as for B1
B20: anti-CD22 heavy chain-only antibody Clone ID 335176 (antibody, V domains shown)
VH: B1 VH with E100D
notes: as for B1
B21: anti-CD22 heavy chain-only antibody Clone ID 335201 (antibody, V domains shown)
VH: B1 VH with A58V, K77R
notes: as for B1
B22: anti-CD22 heavy chain-only antibody Clone ID 335295 (antibody, V domains shown)
VH: B1 VH with D27G, G32S, D33S, H52S, K77R, K83N, N104S
notes: as for B1
B23: anti-CD22 heavy chain-only antibody Clone ID 335226 (antibody, V domains shown)
VH: B1 VH with G32S, D33S, H52S, A58S, N67S
notes: as for B1
B24: anti-CD22 heavy chain-only antibody Clone ID 335182 (antibody, V domains shown)
VH: B1 VH with H52N, E100D
notes: as for B1
B25: anti-CD22 heavy chain-only antibody Clone ID 335293 (antibody, V domains shown)
VH: B1 VH with K77R, N104S
notes: as for B1
B26: anti-CD22 heavy chain-only antibody Clone ID 335245 (antibody, V domains shown)
VH: B1 VH with N104S
notes: as for B1
B27: anti-CD22 heavy chain-only antibody Clone ID 335224 (antibody, V domains shown)
VH: B1 VH with H52S, S56T, A58S, N67S
notes: as for B1
B28: anti-CD22 heavy chain-only antibody Clone ID 335154 (antibody, V domains shown)
VH: B1 VH with A58V, E100D
notes: as for B1
B29: anti-CD22 heavy chain-only antibody Clone ID 335158 (antibody, V domains shown)
VH: B1 VH with D27G, K77R, E100D
notes: as for B1
B30: anti-CD22 heavy chain-only antibody Clone ID 335263 (antibody, V domains shown)
VH: B1 VH with D27G, S30N, S31D, G32N, D33S, Y34H, K77R, K83N, N104S
notes: as for B1
B31: anti-CD22 heavy chain-only antibody Clone ID 335218 (antibody, V domains shown)
VH: B1 VH with K77R
notes: as for B1
B32: anti-CD22 heavy chain-only antibody Clone ID 335187 (antibody, V domains shown)
VH: B1 VH with D27G, G32S, D33S, E100D
notes: as for B1
B33: anti-CD22 heavy chain-only antibody Clone ID 335203 (antibody, V domains shown)
VH: B1 VH with A58V
notes: as for B1
B34: anti-CD22 heavy chain-only antibody Clone ID 335170 (antibody, V domains shown)
VH: B1 VH with K77R, E100D
notes: as for B1
B35: anti-CD22 heavy chain-only antibody Clone ID 335161 (antibody, V domains shown)
VH: B1 VH with K66E, E100D
notes: as for B1
B36: anti-CD22 heavy chain-only antibody Clone ID 335173 (antibody, V domains shown)
VH: B1 VH with D27G, S30T, G32S, D33S, H52S, A58S, N67S, E100D
notes: as for B1
B37: anti-CD22 heavy chain-only antibody Clone ID 335160 (antibody, V domains shown)
VH: B1 VH with H52S, E100D
notes: as for B1
B38: anti-CD22 heavy chain-only antibody Clone ID 335185 (antibody, V domains shown)
VH: B1 VH with K77R, K83N
notes: as for B1
B39: anti-CD22 heavy chain-only antibody Clone ID 335230 (antibody, V domains shown)
VH: B1 VH with G8D, D27G, G32S, D33S, Y34H, K77R, K83N
notes: as for B1
B40: anti-CD22 heavy chain-only antibody Clone ID 335166 (antibody, V domains shown)
VH: B1 VH with D27G, G32S, D33S, H52S, A58S, K77R, K83N, E100D
notes: as for B1
B41: anti-CD22 heavy chain-only antibody Clone ID 335195 (antibody, V domains shown)
VH: B1 VH with D27G, G32S, D33S, H52S, K77R, K83N, V94M
notes: as for B1
B42: anti-CD22 heavy chain-only antibody Clone ID 324508 (antibody, V domains shown)
VH: B1 VH with D27G, K66E, E100D
notes: as for B1
B43: anti-CD22 heavy chain-only antibody Clone ID 335188 (antibody, V domains shown)
VH: B1 VH with D27G, G32S, D33S, A58V, E100D
notes: as for B1
B44: anti-CD22 heavy chain-only antibody Clone ID 335210 (antibody, V domains shown)
VH: B1 VH with D27G, K77R
notes: as for B1
B45: anti-CD22 heavy chain-only antibody Clone ID 335162 (antibody, V domains shown)
VH: QLQLQESGPGLVKPSETLSLTCTVSGGSIISSSYYWGWIRQPPGKGLEWIGSIYYSGSAYYHPSLKSRVTISIDTSKNQFSLKLSSVTAADTAVYYCARDDSSNWRSRGQGTLVTVSS
notes: as for B1
B46: anti-CD22 heavy chain-only antibody Clone ID 335266 (antibody, V domains shown)
VH: B1 VH with K13R, D27G, G32S, D33S, H52S, A58S, N67S, N104S
notes: as for B1
B47: anti-CD22 heavy chain-only antibody Clone ID 335285 (antibody, V domains shown)
VH: B1 VH with D27G, G32S, D33S, H52S, A58V, N104S
notes: as for B1
B48: anti-CD22 heavy chain-only antibody Clone ID 335232 (antibody, V domains shown)
VH: B1 VH with K77R, F80S, K83N
notes: as for B1
B49: anti-CD22 heavy chain-only antibody Clone ID 335189 (antibody, V domains shown)
VH: B1 VH with D27G, G32S, D33S, H52S, I53V, S56T, E100D
notes: as for B1
B50: anti-CD22 heavy chain-only antibody Clone ID 335181 (antibody, V domains shown)
VH: B1 VH with D33G, E100D
notes: as for B1
B51: anti-CD22 heavy chain-only antibody Clone ID 335244 (antibody, V domains shown)
VH: B1 VH with K77R, K83N, N104S
notes: as for B1
B52: anti-CD22 heavy chain-only antibody Clone ID 335159 (antibody, V domains shown)
VH: B1 VH with D27G, G32S, D33S, A58V, V94A, E100D
notes: as for B1
B53: anti-CD22 heavy chain-only antibody Clone ID 335171 (antibody, V domains shown)
VH: B1 VH with D27G, G32S, D33S, H52S, K77R, K83N, E100D
notes: as for B1

Target: T1, human CD22 (human, UniProt P20273 20-687, limits assumed)
T1 construct: also called SIGLEC-2; human CD22 protein
T1 sequence (looked up): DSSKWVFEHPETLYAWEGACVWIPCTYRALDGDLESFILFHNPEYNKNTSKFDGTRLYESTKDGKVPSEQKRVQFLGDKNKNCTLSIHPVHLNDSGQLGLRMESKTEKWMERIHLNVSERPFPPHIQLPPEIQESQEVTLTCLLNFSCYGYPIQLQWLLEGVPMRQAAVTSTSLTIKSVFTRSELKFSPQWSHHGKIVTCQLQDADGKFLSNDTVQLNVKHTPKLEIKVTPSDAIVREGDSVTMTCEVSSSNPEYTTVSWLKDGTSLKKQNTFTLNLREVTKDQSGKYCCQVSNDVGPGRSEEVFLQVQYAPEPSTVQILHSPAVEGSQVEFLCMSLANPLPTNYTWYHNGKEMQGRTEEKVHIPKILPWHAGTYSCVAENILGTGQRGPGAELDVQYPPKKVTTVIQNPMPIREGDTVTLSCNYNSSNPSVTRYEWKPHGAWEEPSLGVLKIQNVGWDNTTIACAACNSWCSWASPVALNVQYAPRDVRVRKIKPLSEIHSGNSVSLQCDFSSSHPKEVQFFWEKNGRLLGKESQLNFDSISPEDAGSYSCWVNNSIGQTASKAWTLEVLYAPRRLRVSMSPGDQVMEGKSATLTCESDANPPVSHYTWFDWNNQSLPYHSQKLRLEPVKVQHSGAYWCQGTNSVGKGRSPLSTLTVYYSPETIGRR
Test: ELISA protein and cell-binding assays

| Binder | binding result |
| --- | --- |
| B1 | binds |
| B2 | binds |
| B3 | binds |
| B4 | binds |
| B5 | binds |
| B6 | binds |
| B7 | binds |
| B8 | binds |
| B9 | binds |
| B10 | binds |
| B11 | binds |
| B12 | binds |
| B13 | binds |
| B14 | binds |
| B15 | binds |
| B16 | binds |
| B17 | binds |
| B18 | binds |
| B19 | binds |
| B20 | binds |
| B21 | binds |
| B22 | binds |
| B23 | binds |
| B24 | binds |
| B25 | binds |
| B26 | binds |
| B27 | binds |

| Binder | binding result |
| --- | --- |
| B28 | binds |
| B29 | binds |
| B30 | binds |
| B31 | binds |
| B32 | binds |
| B33 | binds |
| B34 | binds |
| B35 | binds |
| B36 | binds |
| B37 | binds |
| B38 | binds |
| B39 | binds |
| B40 | binds |
| B41 | binds |
| B42 | binds |
| B43 | binds |
| B44 | binds |
| B45 | binds |
| B46 | binds |
| B47 | binds |
| B48 | binds |
| B49 | binds |
| B50 | binds |
| B51 | binds |
| B52 | binds |
| B53 | binds |
